Assay results published in patent US20050113284A1, “Drug for regenerating tissue and vessel and method therefor” (priority 2001, published 2005).

Biological target: mouse HGF receptor c-Met (endogenous in mouse hepatocytes and liver) (mouse) (UniProt P16056)
Assay: cell-based or functional assay

Substance: full-length mouse MERMUC overexpressed in MERMUC-Tg mice (from UniProt Q8BUE7 22-656)
- ratio of liver weight to body weight after transient overexpression of human HGF: 1.2 times
